From article PMC8273888

Assays:
Assay in all cases: Kinetic parameters of hydrolysis of cephalosporin conjugates
Assay type in all cases: biochemical
Settings in all cases: other: compound as substrate of IMP-28; pH 7.2; 25.0 °C
[1] = substrate: [H][C@]12SCC(CSCc3ccccc3)=C(C(=O)O)N1C(=O)[C@H]2NC(=O)Cc1ccccc1
[2] = substrate: [H][C@]12SCC(CS[C@@H](Cc3ccccc3)C(=O)O)=C(C(=O)O)N1C(=O)[C@H]2NC(=O)Cc1ccccc1
[3] = substrate: [H][C@]12SCC(CS[C@H](Cc3ccccc3)C(=O)O)=C(C(=O)O)N1C(=O)[C@H]2NC(=O)Cc1ccccc1
[4] = substrate: [H][C@]12SCC(CSC(C(=O)O)c3ccccc3)=C(C(=O)O)N1C(=O)[C@H]2NC(=O)Cc1ccccc1
[5] = substrate: [H][C@]12SCC(CSCCc3ccccc3)=C(C(=O)O)N1C(=O)[C@H]2NC(=O)Cc1ccccc1

B1: IMP-28 (Klebsiella oxytoca) (protein)
chain: ESLPDLKIERLDEGVYVHTSFEEVNGWGVVPKHGLVVLVNTEAYLIDTPFTAKDTEKLVTWFVGRGYKIKGSISSHFHSDSTGGIEWLNSQSIPTYASELTNELLKKDGKVQAKNSFGGVSYWLVKNKIEVFYPGPGHTPDNVVVWLPENRVLFGGCFVKPYGLGNLGDANLEAWPKSAKLLMSKYGKAKLVVPSHSEVGDASLLKRTLEHAVKGLNESKKPSKPSN
For B1, the Km [1] was 20.5 ± 4 µM, the kcat [1] was 10.8 s⁻¹ and the kcat/Km [1] was 529000 M⁻¹ s⁻¹. For the same protein, the Km [2] was 175 ± 19 µM, the kcat [2] was 41 s⁻¹ and the kcat/Km [2] was 234000 M⁻¹ s⁻¹. It also gave a Km [3] of 249 ± 7 µM, a kcat [3] of 2.83 s⁻¹ and a kcat/Km [3] of 11000 M⁻¹ s⁻¹. For the same protein, the Km [4] was 129 ± 13 µM, the kcat [4] was 0.386 s⁻¹ and the kcat/Km [4] was 3000 M⁻¹ s⁻¹. The Km [5] was 83.3 ± 16 µM, the kcat [5] was 6.12 s⁻¹ and the kcat/Km [5] was 73000 M⁻¹ s⁻¹.
